The results in this text go back to patent US20200157194A1 (Regeneron, published 2020).

Positions count from the first letter of the chain named. Where only a bound is given, the exact number is not on record here.

Assay [1] has as its target T1, recombinant human GREM1 (hGREM1-His; C-terminal 10His tagged, R&D, #5190-GR) (human, UniProt O60565 25-184).
T1 construct: range 25-184; also called recombinant human GREM1 with a C-terminal decahistidine tag
T1 sequence: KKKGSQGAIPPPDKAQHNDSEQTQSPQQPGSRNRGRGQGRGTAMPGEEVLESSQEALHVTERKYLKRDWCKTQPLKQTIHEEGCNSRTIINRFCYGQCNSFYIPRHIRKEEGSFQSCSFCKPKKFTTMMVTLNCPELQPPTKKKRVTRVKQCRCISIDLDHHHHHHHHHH
The assay can be described thus: BLI Octet, mAb captured, 100 nM GREM1 + 5 uM heparin.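 Note: octet Red96 biolayer interferometry at 25 °C, antibodies captured on anti-human IgG Fc biosensors, pH 7.4 HEPES buffer with 0.1 mg/mL BSA.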 In general terms: In BLI a coated tip is dipped into the sample, and binding shifts an interference pattern.

Assay [2] has as its target T2, human GREM1 (hGREM1-His; SEQ ID NO: 595) (human, UniProt O60565 25-184).
T2 construct: also called biotin-hGREM1-His; recombinant human GREM1 protein
T2 sequence: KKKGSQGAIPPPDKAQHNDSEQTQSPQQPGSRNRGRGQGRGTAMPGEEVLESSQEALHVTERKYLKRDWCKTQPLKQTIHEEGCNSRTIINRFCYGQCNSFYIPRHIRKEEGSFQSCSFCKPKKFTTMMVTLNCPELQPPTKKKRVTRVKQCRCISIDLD
The assay can be described thus: competition ELISA, biotin-hGREM1-His (100 pM) binding to coated hBMP4. For orientation: An ELISA detects its analyte on a solid surface through an enzyme-linked reagent.

The target of assay [3] is T2, human GREM1 (hGREM1-His; SEQ ID NO: 595). As to the kind of experiment: SPR, Biacore T200, 25 C, mAb captured, hGREM1-His injected. (Surface plasmon resonance follows binding to a sensor surface in real time, without labels.)
For assay [4] the target is unchanged. The assay can be described thus: SPR, Biacore T200, 37 C, mAb captured, hGREM1-His injected.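 Note: HBS-EP running buffer containing heparin, association and dissociation phases tracked, KD computed as koff over kon and half-life derived from koff.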
Assay [5] deals with T1, recombinant human GREM1 (hGREM1-His; …). As to the kind of experiment: BLI Octet, mAb captured, 100 nM GREM1 without vs with 5 uM heparin.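 Note: octet Red96 biolayer interferometry at 25 °C, antibodies captured on anti-human IgG Fc biosensors, association of GREM1 measured with versus without heparin in HEPES-buffered saline, pH 7.4.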
For assay [6] the target is unchanged. The assay can be described thus: BLI Octet, mAb captured, 100 nM GREM1.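 Note: octet Red96 biolayer interferometry at 25 °C in pH 7.4 HEPES saline buffer, antibodies held on anti-human IgG Fc capture biosensors, then exposed to GREM1.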
Assay [7] shares this target. The assay can be described thus: cell-based or functional assay.
Assay [8] has the same target. The assay can be described thus: cell-based or functional assay. This is another data set of the same source.

B1: H4H2784N (antibody, human IgG4, V domains shown)
VH: QVQLVESGGGVVQPGRSLRLSCAASGFTFSSYGMHWVRQAPGKGLEWVTIIWHDGSNKYYADSVKGRFTISRDNSKNTLYLQMNSVRAEDTAVYYCARDEDFFDYWGQGTLVTVSS
VL: not shown
notes: H4H prefix = human IgG4 Fc
As a reminder, the IC50 is the midpoint of a concentration-inhibition curve. A high value points to weaker potency in that assay. As usually defined, the Kd is the constant that tells how readily two partners part at equilibrium. Low readings indicate tighter binding, high ones weaker binding. As a reminder, the koff is the first-order rate constant of dissociation. A high value points to a short-lived complex. One may read the kon as the rate constant with which the complex forms. High values mean faster complex formation, low ones slower complex formation. Consider B1, for which, in assay [1], the “Binding Signal with 30 sec Association” value was 0.06 nm and the “Binding Signal with 300 sec Association” value amounted to 0.46 nm. Besides, in assay [2], the “% blocked at maximum Ab tested (20 nM)” value came to 59% and the concentration for half-maximal inhibition (IC50) was 0.45 nM. In assay [3], this molecule yielded a Kd of 17 nM, a koff of 0.00105 s⁻¹, a kon of 61800 M⁻¹ s⁻¹ and a t1/2 of 11 min. In assay [4], this molecule had an equilibrium dissociation constant (Kd) of 13.8 nM, a koff of 0.00197 s⁻¹, a kon of 142000 M⁻¹ s⁻¹ and a t1/2 of 6 min. Besides, in assay [5], the “Reduction in Signal from Heparin at 30 sec” value (“Reduction … at 30 sec” below) came out at 0.18 nm and the “Reduction in Signal from Heparin at 300 sec” value (“Reduction … at 300 sec” for short) was found to be 0.06 nm. In assay [6], the “Binding Signal with 30 sec Association” value amounted to 0.24 nm and the “Binding Signal with 300 sec Association” value was determined as 0.52 nm. For the same molecule, the “IC50 [M], inhibition of hGREM1-His, W-20-17/BRE-luc luciferase (100 pM hBMP4, 10 nM hGREM1-His)” value (shortened to “IC50 [M], inhibition of hGREM1-His”) in assay [7] came out at 9.5e-10 M. In addition, the “hGREM1-His Inhibition IC50, M; W-20-17 cell differentiation assay (alkaline phosphatase)” value in assay [8] stood at 24 nM.

B2: H2bM2783N (antibody, mouse IgG2, V domains shown)
VH: EVQLLESGGGLVQPGGSLRLSCAASGFTFSSYVMNWVRQAPGKGLEWVSAISGSGGSTYYADSVKGRSTISRDNSKNTLYLQMNSLRAEDTAIYYCAKGDIAAIVFDAFDIWGQGTVVTVSS
VL: DIQMTQSPSSLSASVGDRVTITCQASQDISSCLNWYQHKPGKAPKLLIYDASYLETGVPSRFSGSGSGTDFTFTISSLQPEDIATYYCQQYDNLPYTFGQGTKLEIK
notes: H2M prefix = mouse IgG2 Fc (here H2bM); also called H2M2783N
In the case of B2, in assay [3], binding was put at a Kd of 7.4 nM, the koff was found to be 0.0015 s⁻¹, the kon amounted to 202000 M⁻¹ s⁻¹ and the t1/2 is 7.7 min.

B3: H4H2783N2 (antibody, human IgG4, V domains shown)
VH: B2 VH
VL: B2 VL with C32A
notes: H4H prefix = human IgG4 Fc
Turning to B3, in assay [1], the “Binding Signal with 30 sec Association” value was 0.01 nm and the “Binding Signal with 300 sec Association” value amounted to 0.29 nm. In addition, in assay [2], the “% blocked at maximum Ab tested (20 nM)” value was 76% and the IC50 was < 0.025 nM. In assay [3], binding was characterised by a dissociation constant (Kd) of 15.7 nM, the koff is 0.000476 s⁻¹, the kon was found to be 30400 M⁻¹ s⁻¹ and the t1/2 came to 24 min. In assay [4], this molecule returned a Kd of 61.1 nM, a koff of 0.000849 s⁻¹, a kon of 13900 M⁻¹ s⁻¹ and a t1/2 of 14 min. In addition, in assay [5], the “Reduction … at 30 sec” value was 0.28 nm and the “Reduction … at 300 sec” value was 0.18 nm. In assay [6], the “Binding Signal with 30 sec Association” value was determined as 0.29 nm and the “Binding Signal with 300 sec Association” value worked out at 0.47 nm. The “IC50 [M], inhibition of hGREM1-His” value in assay [7] turned out to be 1.3e-09 M. Further, in assay [8], the “hGREM1-His Inhibition IC50, M; W-20-17 cell differentiation assay (alkaline phosphatase)” value stood at 5.6 nM.

B4: H4H2780N (antibody, human IgG4, V domains shown)
VH: EVQLVESGGGLVKPGGSLRLSCAASGFTFSTYSMNWVRQAPGKGLEWVSSISSGSSYIYYTDSVKGRFTISRDNAKNSLYLQMNSLRAEDTAVYYCARFGSYYYFGFDVWGQGTTVTVSS
VL: DIQMTQSPSSLSASVGDRVTITCRASQGISNYLAWYQQKPGKVPKLLIFSASTLQSGVPSRFSGSGSGPDFTLTVSSLQPEDVATYYCQKYNSAPFAFGPGTKVDIK
notes: H4H prefix = human IgG4 Fc
As for B4, in assay [1], the “Binding Signal with 30 sec Association” value was 0.13 nm and the “Binding Signal with 300 sec Association” value is 0.58 nm. For the same molecule, in assay [2], the “% blocked at maximum Ab tested (20 nM)” value came out at 69% and the 50% inhibitory concentration (IC50) came out at 0.1 nM. In addition, in assay [3], the Kd turned out to be 12.4 nM, the koff is 0.00088 s⁻¹, the on-rate constant (kon) was 71200 M⁻¹ s⁻¹ and the t1/2 amounted to 13 min. Also, in assay [4], the Kd was 28 nM, the koff amounted to 0.00161 s⁻¹, the kon was 57400 M⁻¹ s⁻¹ and the t1/2 came to 7 min. For the same molecule, in assay [5], the “Reduction … at 30 sec” value stood at 0 nm and the “Reduction … at 300 sec” value is 0 nm. For the same molecule, in assay [6], the “Binding Signal with 30 sec Association” value was found to be 0.13 nm and the “Binding Signal with 300 sec Association” value amounted to 0.58 nm.

B5: H4H2892N (antibody, human IgG4, V domains shown)
VH: QVQLVESGGGVVQPGRSLRLSCAASGFTFSSYGIHWVRQAPGKGLEWVAILWYDGSNKYYADSVKGRFTISRDNSKTTLYLQMNSLRAEDTAVYYCARENYNDLNFDLWGRGTLVTVSS
VL: DIQLTQSPSFLSASVGDRVTITCWASQGISSYLAWYQHKPGKAPKLLIYAASTLQSGVPSRFSGSGSGIEFTLTISSLQPEDFATYYCQQLKSYPPWTFGQGTKVEIR
notes: H4H prefix = human IgG4 Fc
In the case of B5, in assay [1], the “Binding Signal with 30 sec Association” value came to 0.15 nm and the “Binding Signal with 300 sec Association” value was 0.49 nm. Moreover, in assay [2], the “% blocked at maximum Ab tested (20 nM)” value came to 82% and the IC50 came to 0.17 nM. Moreover, in assay [3], the Kd amounted to 1.22 nM, the koff was 0.000173 s⁻¹, the kon amounted to 142000 M⁻¹ s⁻¹ and the t1/2 stood at 67 min. In assay [4], this molecule returned a Kd of 2.35 nM, a koff of 0.0004 s⁻¹, a kon of 171000 M⁻¹ s⁻¹ and a t1/2 of 29 min. In assay [5], the “Reduction … at 30 sec” value turned out to be 0.05 nm and the “Reduction … at 300 sec” value amounted to 0 nm. Also, in assay [6], the “Binding Signal with 30 sec Association” value is 0.2 nm and the “Binding Signal with 300 sec Association” value was found to be 0.49 nm. Also, the “IC50 [M], inhibition of hGREM1-His” value in assay [7] came to 9.5e-10 M. Also, in assay [8], the “hGREM1-His Inhibition IC50, M; W-20-17 cell differentiation assay (alkaline phosphatase)” value was found to be 4.4 nM.

B6: H4H2889N (antibody, human IgG4, V domains shown)
VH: QVQLQESGPGLVKPSETLSLTCTVSGGSISNSYWSWIRQPPGKGLEWIGYIYYSGNTNYNPSLKSRVTISVDTSKNQFSLKLSSVTAADTAVYYCARVNDYSNYDSYYYGMDVWGQGTTVTVSS
VL: AIQMTQSPSSLSASVGDRVTITCRASQGIRNDLGWYQQKPGKAPKLLIYAASSLQSGVPSRFSGSGSGTDFTLTISSLQPEDFATYYCLQDYNYPPTFGQGTKVDIK
notes: H4H prefix = human IgG4 Fc
For B6, in assay [1], the “Binding Signal with 30 sec Association” value is 0.05 nm and the “Binding Signal with 300 sec Association” value was determined as 0.44 nm. Also, in assay [2], the “% blocked at maximum Ab tested (20 nM)” value was determined as 86% and the IC50 was < 0.025 nM. In assay [3], this molecule returned a Kd of 1.89 nM, a koff of 0.000118 s⁻¹, an on-rate constant (kon) of 62700 M⁻¹ s⁻¹ and a t1/2 of 98 min. In assay [4], the Kd was found to be 4.06 nM, the koff worked out at 0.000422 s⁻¹, the kon was 104000 M⁻¹ s⁻¹ and the t1/2 was 27 min. Further, in assay [5], the “Reduction … at 30 sec” value stood at 0.15 nm and the “Reduction … at 300 sec” value is 0.02 nm. In assay [6], the “Binding Signal with 30 sec Association” value was 0.2 nm and the “Binding Signal with 300 sec Association” value was determined as 0.46 nm. The “IC50 [M], inhibition of hGREM1-His” value in assay [7] came out at 1.2e-09 M. Also, the “hGREM1-His Inhibition IC50, M; W-20-17 cell differentiation assay (alkaline phosphatase)” value in assay [8] was determined as 5.4 nM.

B7: H4H6269P (antibody, human IgG4, V domains shown)
VH: QVQLQESGPGLVKPSQTLSLTCTVSGGSISSGGYYWTWIRQHPGKGLEWIGYIYYSGSTYYNPSLKSRVTMSVDTSKNQFSLKLSSVTAADTAVYYCARLLDFDYWGQGTLVTVSS
VL: B6 VL with T69R, T85S, Y92H, P96L, Q100G, D105E
notes: H4H prefix = human IgG4 Fc
For the molecule B7, in assay [1], the “Binding Signal with 30 sec Association” value was found to be 0.14 nm and the “Binding Signal with 300 sec Association” value is 0.52 nm. Further, in assay [2], the “% blocked at maximum Ab tested (20 nM)” value is 73% and the IC50 is 0.026 nM. Further, in assay [3], binding was characterised by a dissociation constant (Kd) of 0.625 nM, the koff is 6.32e-05 s⁻¹, the kon was 101000 M⁻¹ s⁻¹ and the t1/2 came to 183 min. For the same molecule, in assay [4], binding was put at a Kd of 1.98 nM, the koff amounted to 0.000254 s⁻¹, the kon was 128000 M⁻¹ s⁻¹ and the t1/2 was 46 min. For the same molecule, in assay [5], the “Reduction … at 30 sec” value is 0.01 nm and the “Reduction … at 300 sec” value came to 0.08 nm. Also, in assay [6], the “Binding Signal with 30 sec Association” value amounted to 0.15 nm and the “Binding Signal with 300 sec Association” value worked out at 0.6 nm.
